Measured values as given in paper PMC9487752, “Novel mycoplasma nucleomodulin MbovP475 decreased cell viability by regulating expression of CRYAB and MCF2L2”.

Legend:
Assay in all cases: Southwestern blot; no change vs WT; EMSA: LightShift kit binding buffer, 20 min, room temperature, 5% native PAGE; Southwestern: 2 ug protein on nitrocellulose renatured in TNED buffer, 20 pmol biotin DNA, 12 h, room temperature; SPR: Biacore, NTA chip (~100 RU protein), buffer not given
Conditions in all cases: protein: recombinant; tags: His (pET-30a); label: 5'-C6-biotin (both oligos by primer name); blunt
rMbovP475-265NQ266 = molecular target: T1, rMbovP475-265NQ266 (Mycoplasma bovis HB0801, UniProt A0A454AQS7 1-368, N265A;Q266A)
T1 sequence: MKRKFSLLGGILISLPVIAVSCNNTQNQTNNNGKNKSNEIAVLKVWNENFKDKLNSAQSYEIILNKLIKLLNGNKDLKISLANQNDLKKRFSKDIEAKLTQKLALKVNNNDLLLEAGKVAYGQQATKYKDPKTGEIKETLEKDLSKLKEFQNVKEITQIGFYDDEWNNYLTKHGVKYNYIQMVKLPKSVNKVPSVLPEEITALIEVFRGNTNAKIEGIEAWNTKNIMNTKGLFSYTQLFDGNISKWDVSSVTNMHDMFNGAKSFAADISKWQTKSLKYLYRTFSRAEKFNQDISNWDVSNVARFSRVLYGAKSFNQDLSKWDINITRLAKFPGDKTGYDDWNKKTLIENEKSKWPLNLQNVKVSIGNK

MbovP475∆DB3 = molecular target: T2, MbovP475∆DB3 (Mycoplasma bovis HB0801, UniProt A0A454AQS7 1-338)
T2 sequence: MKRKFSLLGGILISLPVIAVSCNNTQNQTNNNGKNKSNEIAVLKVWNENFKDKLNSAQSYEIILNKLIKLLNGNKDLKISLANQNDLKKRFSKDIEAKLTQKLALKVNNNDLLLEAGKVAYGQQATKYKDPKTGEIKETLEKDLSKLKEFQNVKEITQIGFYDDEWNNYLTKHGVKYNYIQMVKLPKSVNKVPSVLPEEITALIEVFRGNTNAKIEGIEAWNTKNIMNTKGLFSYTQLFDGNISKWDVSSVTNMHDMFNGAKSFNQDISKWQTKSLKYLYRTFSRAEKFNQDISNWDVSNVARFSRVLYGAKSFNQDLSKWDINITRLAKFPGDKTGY

MbovP475∆DB2 = molecular target: T3, MbovP475∆DB2 (Mycoplasma bovis HB0801, UniProt A0A454AQS7 1-298+333-368, internal_change)
T3 sequence: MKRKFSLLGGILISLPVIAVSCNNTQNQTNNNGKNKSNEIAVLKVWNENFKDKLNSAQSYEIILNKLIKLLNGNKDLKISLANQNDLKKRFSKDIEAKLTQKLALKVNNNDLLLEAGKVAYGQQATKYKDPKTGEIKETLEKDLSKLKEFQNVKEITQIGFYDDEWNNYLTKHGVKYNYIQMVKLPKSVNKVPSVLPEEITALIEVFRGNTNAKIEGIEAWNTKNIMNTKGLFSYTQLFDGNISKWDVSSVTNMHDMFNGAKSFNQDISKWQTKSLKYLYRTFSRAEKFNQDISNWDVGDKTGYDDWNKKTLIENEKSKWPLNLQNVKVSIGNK

Measured: binding result

B1: CRYAB promoter (+108 to +167) (dsDNA)
DNA 1: TCTCTTCCCAGCTTCTACTTCCCTGAGCCCCTTCTACCTTCGGCCGCCCTCATTTCTGCG
DNA 2: CGCAGAAATGAGGGCGGCCGAAGGTAGAAGGGGCTCAGGGAAGTAGAAGCTGGGAAGAGA
binds: all assays above

B2: MCF2L2 promoter (+53 to +112) (dsDNA)
DNA 1: CAACTAACACTTTACGGGAGTGGGCACATCATTCCTGAATAAGGACACGCGCGTGCGCAC
DNA 2: GTGCGCACGCGCGTGTCCTTATTCAGGAATGATGTGCCCACTCCCGTAAAGTGTTAGTTG
binds: all assays above
